The target in series [1] is T1, His-SCR2, (S)-carbonyl reductase SCR2 of Candida parapsilosis with N-terminal His-tag, expressed from pET28-His-SCR2.
T1 chain: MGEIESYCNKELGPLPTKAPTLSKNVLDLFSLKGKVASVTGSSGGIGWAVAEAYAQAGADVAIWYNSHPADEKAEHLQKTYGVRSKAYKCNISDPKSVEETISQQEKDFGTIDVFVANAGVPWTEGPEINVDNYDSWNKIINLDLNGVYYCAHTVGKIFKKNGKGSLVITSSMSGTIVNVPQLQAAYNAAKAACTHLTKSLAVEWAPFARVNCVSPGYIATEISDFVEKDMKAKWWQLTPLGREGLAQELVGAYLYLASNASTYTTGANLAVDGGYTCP

Series [2] has as its target T2, SCR3, (S)-carbonyl reductase of Candida parapsilosis, as in the hetero-oligomer SCR/SCR3.
T2 chain: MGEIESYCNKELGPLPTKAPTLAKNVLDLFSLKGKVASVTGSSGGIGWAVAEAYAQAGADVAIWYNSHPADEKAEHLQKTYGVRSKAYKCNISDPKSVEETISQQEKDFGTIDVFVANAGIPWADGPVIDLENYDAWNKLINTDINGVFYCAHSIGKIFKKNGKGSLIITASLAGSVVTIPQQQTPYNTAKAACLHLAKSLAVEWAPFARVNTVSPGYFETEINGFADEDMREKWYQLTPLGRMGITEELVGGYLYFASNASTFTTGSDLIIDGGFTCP

Series [3] addresses T3, SCR3, (S)-carbonyl reductase of Candida parapsilosis, as in the hetero-oligomer SCR/SCR3 (Candida parapsilosis, UniProt G8BHG5 1-279).
T3 sequence: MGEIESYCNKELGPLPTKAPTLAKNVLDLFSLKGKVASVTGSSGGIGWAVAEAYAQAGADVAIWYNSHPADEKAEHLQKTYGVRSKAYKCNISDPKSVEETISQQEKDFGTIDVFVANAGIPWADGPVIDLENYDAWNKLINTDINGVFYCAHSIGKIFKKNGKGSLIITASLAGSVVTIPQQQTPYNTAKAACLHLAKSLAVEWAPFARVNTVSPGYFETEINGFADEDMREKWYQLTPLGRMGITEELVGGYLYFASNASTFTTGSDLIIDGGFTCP
Kind of series: method not described for this pair.

A short description of series [4]: Reductive activity assay towards 2,4-dichlorobenzophenone (NADPH oxidation, absorbance at 340 nm). The format is biochemical. Conditions: purified enzyme, 0.5 mM NADPH, 1 mM substrate, 30° C. As to the method:
(§1) (1) Principle and definition: The enzyme activity for the reduction of prochiral ketones to chiral alcohols by homo-oligomers was determined with purified enzymes by measuring the decrease in absorbance at 340 nm resulting from the oxidation of NADPH. Protein concentration was determined by Beyotime (Shanghai, China) using bovine serum albumin as a standard.
(§2) (2) Enzyme activity assay conditions (250 ul): 0.5 mmol·L^−1 NADPH, 1 mmol·L^−1 substrate (2,4-dichlorobenzophenone, 2-naphthyl ketone, or [(E)-2-[3-[3-[2-(7-chloro-2-quinolinyl)ethenyl]phenyl]-3-oxopropyl]benzoic acid methyl ester (Keto Easter M).). Incubate the mixture at 30° C. for 2 min, then add appropriate amount of enzyme, and finally measure the absorbance at 340 nm wavelength.
(§3) Formula for calculating enzyme activity is: Enzyme activity (U)=EW×V×10^3/(6220×0.15), and formula for calculating relative enzyme activity is: relative enzyme activity (U/mg)=enzyme activity (U)/protein content (mg), wherein EW is the measured change of absorbance at 340 nm in 1 min; V is the reaction volume (mL); the molar absorption coefficient (L mol^−1 cm^−1) is 6220; and the optical length is 0.15 cm.
(§4) One unit of the enzyme activity is defined as the amount of enzyme catalyzing the formation and oxidation of 1 μmol of NAD(P)H per minute under measurement conditions.
(§5) Enzyme activity assay system (250 ul) contained 0.5 mM NADPH, 1 mM substrate (i.e. 2,4-dichlorobenzophenone) and appropriate amount of enzyme. The reaction mixture was incubated at 30° C. for 2 min, the appropriate amount of enzyme was added, and finally the absorption change was scanned at 340 nm wavelength. The calculated relative enzyme activity of SCR/SCR2 and SCR2/SCR3 were 4.55 U/mg and 4.42 U/mg towards 2,4-dichlorobenzophenone, respectively.

Series [5] in a line: Reductive activity assay towards 2-acetonaphthone (NADPH oxidation, absorbance at 340 nm). The format is biochemical. The settings on record: purified enzyme, 0.5 mM NADPH, 1 mM substrate, 30° C. How it is done:
as §1, §2, §3, §4
Enzyme activity assay system (250 ul) contained 0.5 mM NADPH, 1 mM substrate (i.e. 2-acetonaphthone) and appropriate amount of enzyme. The reaction mixture was incubated at 30° C. for 2 min, the appropriate amount of enzyme was added, and finally the absorption change was scanned at 340 nm wavelength. The calculated relative enzyme activity of SCR/SCR2 was 2.43 U/mg towards 2-acetonaphthone.

Series [6] in a line: Reductive activity assay towards Keto Easter M (NADPH oxidation, absorbance at 340 nm). The format is biochemical. Conditions: purified enzyme, 0.5 mM NADPH, 1 mM substrate, 30° C. As to the method:
as §1, §2, §3, §4
as §5, with “[(E)-2-[3-[3-[2-(7-chloro-2-quinolinyl)ethenyl]phenyl]-3-oxopropyl]benzoic acid methyl ester (Keto Easter M)” for “2,4-dichlorobenzophenone)”, “0.86” for “4.55”, “1.21” for “4.42”, “[(E)-2-[3-[3-[2-(7-chloro-2-quinolinyl)ethenyl]phenyl]-3-oxopropyl]benzoic acid methyl ester (Keto Easter M),” for “2,4-dichlorobenzophenone,”

Series [7] addresses T4, His-SCR3, (S)-carbonyl reductase SCR3 of Candida parapsilosis with N-terminal His-tag, expressed from pET28-His-SCR3.
T4 chain: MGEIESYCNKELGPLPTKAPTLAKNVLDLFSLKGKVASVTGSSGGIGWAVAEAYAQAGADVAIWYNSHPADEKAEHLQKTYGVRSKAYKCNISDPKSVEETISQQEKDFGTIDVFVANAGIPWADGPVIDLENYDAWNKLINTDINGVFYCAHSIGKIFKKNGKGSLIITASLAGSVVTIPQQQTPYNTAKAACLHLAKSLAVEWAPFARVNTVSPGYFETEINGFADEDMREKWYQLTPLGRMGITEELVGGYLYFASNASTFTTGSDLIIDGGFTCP

“Also recorded” adds a separate entry of the source.

B1: Strep-SCR, (S)-carbonyl reductase SCR of Candida parapsilosis with N-terminal Strep-tag, expressed from pET21-Strep-SCR (protein)
chain: MGEIESYCNKELGPLPTKAPTLSKNVLDLFSLKGKVASVTGSSGGIGWAVAEAYAQAGADVAIWYNSHPADEKAEHLQKTYGVHSKAYKCNISDPKSVEETISQQEKDFGTIDVFVANAGVTWTQGPEIDVDNYDSWNKIISVDLNGVYYCSHNIGKIFKKNGKGSLIITSSISGKIVNIPQLQAPYNTAKAACTHLAKSLAIEWAPFARVNTISPGYIDTDITDFASKDMKAKWWQLTPLGREGLTQELVGGYLYLASNASTFTTGSDVVIDGGYTCP
As for B1, in series [1], the “relative enzyme activity towards 2,4-dichlorobenzophenone” value is 4.55 U/mg, the “relative enzyme activity towards 2-acetonaphthone” value was determined as 2.43 U/mg and the “relative enzyme activity towards [(E)-2-[3-[3-[2-(7-chloro-2-quinolinyl)ethenyl]phenyl]-3-oxopropyl]benzoic acid methyl ester (Keto Easter M)” value was found to be 0.86 U/mg.

B2: SCR, (S)-carbonyl reductase of Candida parapsilosis, as in the hetero-oligomer SCR/SCR3 (enzyme)
chain: MGEIESYCNKELGPLPTKAPTLSKNVLDLFSLKGKVASVTGSSGGIGWAVAEAYAQAGADVAIWYNSHPADEKAEHLQKTYGVHSKAYKCNISDPKSVEETISQQEKDFGTIDVFVANAGVTWTQGPEIDVDNYDSWNKIISVDLNGVYYCSHNIGKIFKKNGKGSLIITSSISGKIVNIPQLQAPYNTAKAACTHLAKSLAIEWAPFARVNTISPGYIDTDITDFASKDMKAKWWQLTPLGREGLTQELVGGYLYLASNASTFTTGSDVVIDGGYTCP
Take B2: the “activities to polyphenyl ketones” value in series [2] is “also showed some activities to polyphenyl ketones”. Besides, in series [3], the binding result is listed as “binds”.

B3: SCR: homo-oligomer (S)-carbonyl reductase from Candida parapsilosis, amino acid sequence SEQ ID NO: 1 (protein, listed as Candida parapsilosis)
chain: MGEIESYCNKELGPLPTKAPTLSKNVLDLFSLKGKVASVTGSSGGIGWAVAEAYAQAGADVAIWYNSHPADEKAEHLQKTYGVHSKAYKCNISDPKSVEETISQQEKDFGTIDVFVANAGVTWTQGPEIDVDNYDSWNKIISVDLNGVYYCSHNIGKIFKKNGKGSLIITSSISGKIVNIPQLQAPYNTAKAACTHLAKSLAIEWAPFARVNTISPGYIDTDITDFASKDMKAKWWQLTPLGREGLTQELVGGYLYLASNASTFTTGSDVVIDGGYTCP
B3: the “relative enzyme activity (specific activity) towards 2,4-dichlorobenzophenone” value in series [4] was “no specific activity is observed; also recorded: no enzyme activities were detected”. Further, the “relative enzyme activity (specific activity) towards 2-acetonaphthone” value in series [5] is “no specific activity is observed; also recorded: no enzyme activities were detected”. The “relative enzyme activity (specific activity) towards Keto Easter M” value in series [6] is on record as “no specific activity is observed; also recorded: no enzyme activities were detected”.

B4: SCR3: homo-oligomer (S)-carbonyl reductase from Candida parapsilosis, amino acid sequence SEQ ID NO: 3 (protein, listed as Candida parapsilosis)
chain: MGEIESYCNKELGPLPTKAPTLAKNVLDLFSLKGKVASVTGSSGGIGWAVAEAYAQAGADVAIWYNSHPADEKAEHLQKTYGVRSKAYKCNISDPKSVEETISQQEKDFGTIDVFVANAGIPWADGPVIDLENYDAWNKLINTDINGVFYCAHSIGKIFKKNGKGSLIITASLAGSVVTIPQQQTPYNTAKAACLHLAKSLAVEWAPFARVNTVSPGYFETEINGFADEDMREKWYQLTPLGRMGITEELVGGYLYFASNASTFTTGSDLIIDGGFTCP
As for B4, the “relative enzyme activity (specific activity) towards 2,4-dichlorobenzophenone” value in series [4] is “no specific activity is observed; also recorded: no enzyme activities were detected”. Also, the “relative enzyme activity (specific activity) towards 2-acetonaphthone” value in series [5] is “no specific activity is observed; also recorded: no enzyme activities were detected”. The “relative enzyme activity (specific activity) towards Keto Easter M” value in series [6] is “no specific activity is observed; also recorded: no enzyme activities were detected”.

B5: Strep-SCR2, (S)-carbonyl reductase SCR2 of Candida parapsilosis with N-terminal Strep-tag, expressed from pET21-Strep-SCR2 (protein)
chain: MGEIESYCNKELGPLPTKAPTLSKNVLDLFSLKGKVASVTGSSGGIGWAVAEAYAQAGADVAIWYNSHPADEKAEHLQKTYGVRSKAYKCNISDPKSVEETISQQEKDFGTIDVFVANAGVPWTEGPEINVDNYDSWNKIINLDLNGVYYCAHTVGKIFKKNGKGSLVITSSMSGTIVNVPQLQAAYNAAKAACTHLTKSLAVEWAPFARVNCVSPGYIATEISDFVEKDMKAKWWQLTPLGREGLAQELVGAYLYLASNASTYTTGANLAVDGGYTCP
For B5, in series [7], the “relative enzyme activity towards 2,4-dichlorobenzophenone” value is reported as 4.42 U/mg and the “relative enzyme activity towards [(E)-2-[3-[3-[2-(7-chloro-2-quinolinyl)ethenyl]phenyl]-3-oxopropyl]benzoic acid methyl ester (Keto Easter M)” value is 1.21 U/mg. Moreover, the “relative enzyme activity (specific activity) towards 2,4-dichlorobenzophenone” value in series [4] is reported as “no specific activity is observed; also recorded: no enzyme activities were detected”. For the same molecule, the “relative enzyme activity (specific activity) towards 2-acetonaphthone” value in series [5] is given as “no specific activity is observed; also recorded: no enzyme activities were detected”. The “relative enzyme activity (specific activity) towards Keto Easter M” value in series [6] is “no specific activity is observed; also recorded: no enzyme activities were detected”.

The values are drawn from patent US10023882B1, “Hetero-oligomers of (S)-carbonyl reductases and their applications in catalyzing reduction of polyphenyl ketones” (Jiangnan University, priority 2017, dated 2018).
